Test results from US20240167082A1.

Biological target: CD3 (cell surface marker on Jurkat cells and on Ramos cells) (human) (UniProt P07766)
Test: cell-based or functional assay

UniProt P07766, sequence (P07766 23-207): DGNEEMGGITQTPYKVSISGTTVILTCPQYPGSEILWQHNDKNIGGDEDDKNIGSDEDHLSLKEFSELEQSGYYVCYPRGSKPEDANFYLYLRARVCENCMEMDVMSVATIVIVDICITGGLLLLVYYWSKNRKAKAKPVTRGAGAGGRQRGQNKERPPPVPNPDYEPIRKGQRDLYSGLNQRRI

share of drops with labelled cells that cross the Cy5 fluorescence threshold: > 95% | time at which drops cross the Cy5 fluorescence threshold: 20 to 50 min | time at which drops cross the Cy5 fluorescence threshold, Jurkat cells in droplets: 20 to 38 min | time to Cy5 fluorescence in drops with Jurkat cells from a mixed Jurkat and mouse pool: 20 min
Substance: TotalSeqB anti-CD3 antibody (Biolegend cat no. 300477; anti-human CD3-totalseqB Ab, clone UCHT1)
